In patent publication US20110183896A1 (published 2011):

How the values were obtained:
[1] = biological target: Cry3Aa toxin of Bacillus thuringiensis tenebrionis, chymotrypsin-treated (Bacillus thuringiensis subsp. …, UniProt P0A379 159-644); assay: ELISA
[2] = biological target: Cry3Bb toxin of Bacillus thuringiensis, recombinant from E. coli, chymotrypsin-treated (Bacillus thuringiensis, UniProt Q06117 160-652); assay: ELISA saturation binding
Sequence of Cry3Bb toxin of Bacillus thuringiensis, recombinant from E. coli, chymotrypsin-treated (Q06117 160-652): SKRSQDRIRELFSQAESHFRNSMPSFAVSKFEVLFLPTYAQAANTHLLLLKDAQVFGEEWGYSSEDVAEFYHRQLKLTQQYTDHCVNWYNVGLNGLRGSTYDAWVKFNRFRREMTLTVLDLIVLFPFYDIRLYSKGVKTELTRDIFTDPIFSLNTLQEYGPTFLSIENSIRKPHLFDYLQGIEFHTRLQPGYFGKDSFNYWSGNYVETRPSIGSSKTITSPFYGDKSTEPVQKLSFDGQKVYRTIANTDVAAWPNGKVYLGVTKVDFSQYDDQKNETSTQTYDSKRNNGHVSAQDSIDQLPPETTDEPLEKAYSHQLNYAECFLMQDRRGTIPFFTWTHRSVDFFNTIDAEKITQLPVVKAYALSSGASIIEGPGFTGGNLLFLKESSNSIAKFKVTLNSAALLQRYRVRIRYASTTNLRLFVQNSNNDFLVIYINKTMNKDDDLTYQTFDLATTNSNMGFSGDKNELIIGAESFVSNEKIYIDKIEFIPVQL

Sequence of Cry3Aa toxin of Bacillus thuringiensis tenebrionis, chymotrypsin-treated (P0A379 159-644): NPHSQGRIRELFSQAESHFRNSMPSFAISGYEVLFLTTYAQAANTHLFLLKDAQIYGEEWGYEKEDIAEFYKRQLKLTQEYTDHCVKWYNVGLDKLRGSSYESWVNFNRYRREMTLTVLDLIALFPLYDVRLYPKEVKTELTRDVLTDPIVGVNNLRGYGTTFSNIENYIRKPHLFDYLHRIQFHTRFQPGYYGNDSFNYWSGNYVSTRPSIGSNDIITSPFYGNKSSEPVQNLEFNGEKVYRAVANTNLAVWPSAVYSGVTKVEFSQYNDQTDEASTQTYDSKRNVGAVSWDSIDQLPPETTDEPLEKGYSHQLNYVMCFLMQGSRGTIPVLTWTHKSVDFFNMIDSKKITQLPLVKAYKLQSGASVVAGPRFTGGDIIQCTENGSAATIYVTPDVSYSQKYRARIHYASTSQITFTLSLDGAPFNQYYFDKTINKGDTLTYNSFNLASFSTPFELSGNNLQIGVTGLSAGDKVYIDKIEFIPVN

B1: Dv-CR8-10 peptide (cadherin repeats 8-10 of the Diabrotica virgifera virgifera cadherin-like protein), biotinylated (peptide)
chain: MAVLMTKDLQCSENLNKDGEVGEGIIGEDIDDGDNAKIDFSVLSIVDKETKNDIQESFNISKIDSDYVLNDTLKKVHLIAFEDLKGKYGTYEVTLHMHDEGDPMQTTDPDPTLTLTIEKWNYQTPSIIFPENDQTYIVLSDQQPGQPLALFNNTGTSNTLPDFSATDGETKDYSKWDVKFSYTQTNYEDDKIFVIDHIQPCVSQLQVSKHFNSDLVRSKKYKLTITASVKDGAEQEGEAGYSTSANISIVFLNNDAQPIFQNSDWSVSFVEFNTTQPAKPLEEQAEYENTKGGLPIYYHFYSENQTLSKYFEVDETSGDLSVIGNLTYDYDQDISFHIVASNDSQVRMLDPRSSLNVTVNFLPRNRRAPQWHHHHHH
modifications: biotinylated (sites not given)
B1 gave a Kd [1] of 18.8 nM and a Kd [2] of 1.4 nM.
